# Measured values reported in patent US20250243240A1.
# Target: Vascular endothelial growth factor (VEGF) (Homo sapiens (Human)) (UniProt P15692)
substance,measurement,value
Peak 1 fraction of hydrophobic interaction chromatography of purified aflibercept (pool or library),relative titer,6.6%
